For 1 substance, % activity results are on record in US20160136234A1.

What all share (experiment): cell-based or functional assay
Assay [1] deals with EphA4 (h) (human) (UniProt P54764).
Assay [2] has as its target PKCβII (h) (human) (UniProt P05771).
Assay [3] addresses JNK2α2 (h) (human) (UniProt P45984).
Assay [4] concerns the target WNK2 (h) (human) (UniProt Q9Y3S1).
Assay [5] has as its target MST3 (h) (human) (UniProt Q9Y6E0).
Assay [6] deals with IGF-1R (h), activated (human) (UniProt P08069).
Assay [7] concerns the target T1, PrKX (h) (human) (UniProt P51817).
T1 sequence (looked up): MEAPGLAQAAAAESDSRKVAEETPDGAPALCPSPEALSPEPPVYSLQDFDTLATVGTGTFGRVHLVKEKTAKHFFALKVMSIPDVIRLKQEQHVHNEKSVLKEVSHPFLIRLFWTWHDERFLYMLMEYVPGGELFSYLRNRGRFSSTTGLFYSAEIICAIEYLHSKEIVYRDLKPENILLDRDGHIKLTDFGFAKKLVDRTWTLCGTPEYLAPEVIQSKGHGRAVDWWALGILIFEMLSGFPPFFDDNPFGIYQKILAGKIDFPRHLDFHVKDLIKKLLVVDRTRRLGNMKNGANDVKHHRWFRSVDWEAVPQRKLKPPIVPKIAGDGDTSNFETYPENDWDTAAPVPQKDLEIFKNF

Assay [8] deals with ZIPK (h) (human) (UniProt O43293).
Assay [9] addresses HIPK2 (h) (human) (UniProt Q9H2X6).
Assay [10] concerns the target CK1δ (h) (human) (UniProt P48730).
Assay [11] addresses T2, Fms (h) (human) (UniProt P07333).
T2 sequence (looked up): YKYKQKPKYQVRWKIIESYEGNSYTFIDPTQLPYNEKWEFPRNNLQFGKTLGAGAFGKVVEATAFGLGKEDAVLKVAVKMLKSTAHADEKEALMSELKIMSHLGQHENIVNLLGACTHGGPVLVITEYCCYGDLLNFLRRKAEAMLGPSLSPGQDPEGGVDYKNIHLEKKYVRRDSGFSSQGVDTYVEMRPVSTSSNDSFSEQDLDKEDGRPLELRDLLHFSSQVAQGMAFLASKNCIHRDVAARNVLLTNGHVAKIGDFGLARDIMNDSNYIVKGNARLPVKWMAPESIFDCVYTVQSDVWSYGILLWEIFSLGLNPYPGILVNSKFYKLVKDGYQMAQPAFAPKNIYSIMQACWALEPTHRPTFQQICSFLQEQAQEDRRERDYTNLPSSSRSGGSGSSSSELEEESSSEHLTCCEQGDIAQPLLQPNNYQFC

The target of assay [12] is PDGFRβ (h) (human) (UniProt P09619).
Assay [13] concerns the target T3, PKCµ (h) (human) (UniProt Q15139).
T3 sequence (looked up): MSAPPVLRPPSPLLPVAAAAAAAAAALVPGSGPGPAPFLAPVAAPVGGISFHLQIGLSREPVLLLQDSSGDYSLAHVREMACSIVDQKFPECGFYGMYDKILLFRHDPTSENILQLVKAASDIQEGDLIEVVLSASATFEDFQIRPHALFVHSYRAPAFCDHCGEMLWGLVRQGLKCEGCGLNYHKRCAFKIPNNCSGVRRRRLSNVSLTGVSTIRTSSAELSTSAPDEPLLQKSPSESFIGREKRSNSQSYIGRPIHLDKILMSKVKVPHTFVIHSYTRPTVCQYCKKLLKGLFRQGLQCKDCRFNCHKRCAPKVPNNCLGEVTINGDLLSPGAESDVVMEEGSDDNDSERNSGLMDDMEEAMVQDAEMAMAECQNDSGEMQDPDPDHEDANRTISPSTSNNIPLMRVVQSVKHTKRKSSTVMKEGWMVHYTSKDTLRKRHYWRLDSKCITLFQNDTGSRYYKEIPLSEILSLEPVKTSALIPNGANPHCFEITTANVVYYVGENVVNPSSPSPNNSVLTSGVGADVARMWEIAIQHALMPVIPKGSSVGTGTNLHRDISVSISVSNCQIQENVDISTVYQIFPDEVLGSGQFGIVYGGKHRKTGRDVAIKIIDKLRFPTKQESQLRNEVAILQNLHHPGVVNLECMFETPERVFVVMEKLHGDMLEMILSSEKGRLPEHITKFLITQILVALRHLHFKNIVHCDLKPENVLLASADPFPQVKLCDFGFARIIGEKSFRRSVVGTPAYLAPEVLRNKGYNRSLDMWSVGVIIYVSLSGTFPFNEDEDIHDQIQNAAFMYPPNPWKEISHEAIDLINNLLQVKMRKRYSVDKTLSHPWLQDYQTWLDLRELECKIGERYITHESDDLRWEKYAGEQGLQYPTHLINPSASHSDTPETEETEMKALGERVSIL

The target in assay [14] is IR (h) (human) (UniProt P06213).
Assay [15] deals with CDK2/cyclinE (h) (human) (UniProt P24941).
Assay [16] has as its target MSK1 (h) (human) (UniProt O75582).
Assay [17] deals with T4, ULK2 (h) (human) (UniProt Q8IYT8).
T4 sequence (looked up): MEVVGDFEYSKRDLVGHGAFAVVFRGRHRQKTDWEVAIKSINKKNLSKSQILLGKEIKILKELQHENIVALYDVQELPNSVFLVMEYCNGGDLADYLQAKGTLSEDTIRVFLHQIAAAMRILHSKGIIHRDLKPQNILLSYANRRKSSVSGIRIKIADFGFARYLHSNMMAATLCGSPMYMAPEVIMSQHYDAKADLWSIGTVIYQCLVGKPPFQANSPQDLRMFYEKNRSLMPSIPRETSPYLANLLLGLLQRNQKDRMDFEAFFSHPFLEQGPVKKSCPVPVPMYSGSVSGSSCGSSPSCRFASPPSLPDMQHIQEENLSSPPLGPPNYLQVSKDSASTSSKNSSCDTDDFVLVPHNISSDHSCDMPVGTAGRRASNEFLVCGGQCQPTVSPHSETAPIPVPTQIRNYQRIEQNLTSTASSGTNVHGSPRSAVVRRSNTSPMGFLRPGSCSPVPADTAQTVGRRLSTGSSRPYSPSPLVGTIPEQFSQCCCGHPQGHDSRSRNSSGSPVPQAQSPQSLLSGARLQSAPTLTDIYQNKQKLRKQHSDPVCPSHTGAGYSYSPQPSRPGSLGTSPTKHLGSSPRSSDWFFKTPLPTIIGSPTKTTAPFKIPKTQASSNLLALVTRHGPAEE

Sequence of EphA4 (h) (human) (P54764 570-986 limits assumed): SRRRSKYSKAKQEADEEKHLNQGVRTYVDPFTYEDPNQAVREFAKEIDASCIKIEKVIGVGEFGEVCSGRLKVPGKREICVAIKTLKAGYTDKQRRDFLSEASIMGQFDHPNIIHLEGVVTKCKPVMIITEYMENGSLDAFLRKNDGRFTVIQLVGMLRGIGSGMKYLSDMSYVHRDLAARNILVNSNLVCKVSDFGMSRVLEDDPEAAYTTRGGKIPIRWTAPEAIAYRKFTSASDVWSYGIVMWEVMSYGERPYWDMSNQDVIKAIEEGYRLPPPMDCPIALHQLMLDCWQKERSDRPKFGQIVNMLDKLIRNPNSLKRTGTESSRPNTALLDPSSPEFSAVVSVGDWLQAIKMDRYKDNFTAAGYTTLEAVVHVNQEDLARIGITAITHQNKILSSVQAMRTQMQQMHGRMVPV
Sequence of PDGFRβ (h) (human) (P09619 557-1106 limits assumed): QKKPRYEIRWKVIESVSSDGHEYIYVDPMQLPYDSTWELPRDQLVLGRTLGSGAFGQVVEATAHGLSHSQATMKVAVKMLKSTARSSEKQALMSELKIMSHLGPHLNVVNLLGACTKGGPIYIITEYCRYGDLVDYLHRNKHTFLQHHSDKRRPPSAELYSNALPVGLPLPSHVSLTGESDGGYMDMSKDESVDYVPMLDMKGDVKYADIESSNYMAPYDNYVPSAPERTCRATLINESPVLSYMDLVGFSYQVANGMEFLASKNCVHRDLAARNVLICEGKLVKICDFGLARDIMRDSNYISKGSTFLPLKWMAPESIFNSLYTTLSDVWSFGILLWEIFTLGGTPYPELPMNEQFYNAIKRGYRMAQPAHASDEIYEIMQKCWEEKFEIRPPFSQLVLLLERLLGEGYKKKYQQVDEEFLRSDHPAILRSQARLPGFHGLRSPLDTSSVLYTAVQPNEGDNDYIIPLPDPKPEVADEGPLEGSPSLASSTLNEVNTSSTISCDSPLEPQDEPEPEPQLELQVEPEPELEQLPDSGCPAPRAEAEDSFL
Sequence of IGF-1R (h), activated (human) (P08069 959-1367 limits assumed): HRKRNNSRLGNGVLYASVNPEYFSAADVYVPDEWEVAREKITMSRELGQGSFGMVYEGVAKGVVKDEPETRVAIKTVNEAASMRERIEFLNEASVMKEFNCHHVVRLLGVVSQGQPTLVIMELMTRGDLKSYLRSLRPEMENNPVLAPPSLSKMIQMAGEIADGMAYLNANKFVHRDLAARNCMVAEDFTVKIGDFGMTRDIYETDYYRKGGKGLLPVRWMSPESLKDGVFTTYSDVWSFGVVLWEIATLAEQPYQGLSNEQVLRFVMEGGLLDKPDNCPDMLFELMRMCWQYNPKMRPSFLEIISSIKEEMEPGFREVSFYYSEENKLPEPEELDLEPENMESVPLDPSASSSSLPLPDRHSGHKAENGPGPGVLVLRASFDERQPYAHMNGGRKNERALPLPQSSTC
Sequence of IR (h) (human) (P06213 1005-1310 limits assumed): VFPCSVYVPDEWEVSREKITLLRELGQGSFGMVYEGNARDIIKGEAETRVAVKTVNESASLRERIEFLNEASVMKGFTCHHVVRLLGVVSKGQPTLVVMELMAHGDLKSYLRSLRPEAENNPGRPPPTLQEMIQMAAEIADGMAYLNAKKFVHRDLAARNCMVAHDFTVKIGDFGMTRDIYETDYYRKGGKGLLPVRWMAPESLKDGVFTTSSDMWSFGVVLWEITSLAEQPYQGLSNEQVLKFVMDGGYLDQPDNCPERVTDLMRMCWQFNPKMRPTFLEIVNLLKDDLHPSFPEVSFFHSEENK

On to MMI-0300 (peptide), for which the % activity at 100 µM worked out at 88% in assay [1]; 82% in assay [2]; 98% in assay [3]; 64% in assay [4]; 45% in [5]; 80% in assay [6]. The % activity at 100 µM in [7] is 61%; in [8] it was 28%; in assay [9], 73%; in assay [10] it was 92%; in assay [11] it was 45%; in assay [12] it was 81%. The % activity at 100 µM in [13] came out at 22%; in assay [14] it was 96%; in [15] it was 94%; in [16], 32%; in assay [17] it was 122%.
